# In patent US20080286311A1:
# B1: MP12 (reshuffled Phl p 12 derivative) (protein)
# chain: MEPGAVIRGKKGAGGITIKKTGQALVGIYDEPMTPGQCNMVVERLGDYLVEQGMMSWQTYVDEHLMCEIEGHHLASAAILGHDGTVWAQSADFPQFKPEEITGIMKDFDEPGHLAPTGMFVAGAKYMVIQGHHHHHH
# B2: Phl p 12 wild-type (timothy grass pollen profilin) (protein)
# chain: MSWQTYVDEHLMCEIEGHHLASAAILGHDGTVWAQSADFPQFKPEEITGIMKDFDEPGHLAPTGMFVAGAKYMVIQGEPGAVIRGKKGAGGITIKKTGQALVVGIYDEPMTPGQCNMVVERLGDYLVEQGM
# Assays:
# [1] = biological target: basophils from house dust mite allergic patients
# [2] = biological target: serum IgE of profilin-sensitised (Phl p 12-allergic) patients; test: fluid phase inhibition: sera of six patients preincubated with 10 µg MP12, then ELISA on plate-bound Phl p 12
# [3] = biological target: basophils (granulocytes) from Phl p 12-allergic patients
# [4] = biological target: serum IgE of profilin-sensitised (Phl p 12-allergic) patients; test: fluid phase inhibition: sera of six patients preincubated with 10 µg Phl p 12, then ELISA on plate-bound Phl p 12
molecule,measurement,setting,value
rDer p 2 hybrid (aa 54-129+1-53) (from UniProt P49278),CD 203c expression on basophils,[1],10 fold reduced
B1,mean % inhibition of IgE binding to Phl p 12,[2],31.2%
same,histamine release (fold reduction),[3],1000
B2,mean % inhibition of IgE binding to Phl p 12,[4],86%
